Consider 1 molecule from article PMC8492665, “An apple (Malus domestica) AP2/ERF transcription factor modulates carotenoid accumulation”.

For the data set, the target named is MdAP2-34 (Malus domestica, UniProt A0A678SKA5 1-366). The data set is described as follows: EMSA; LightShift Chemiluminescent EMSA Kit (Thermo Fisher); buffer, salt, pH and temperature not stated. To be noted: protein: recombinant; tags: GST (pGEX-4T-1, N-terminal); label: 5' biotin; blunt.
MdAP2-34, sequence (A0A678SKA5 entry or part of it): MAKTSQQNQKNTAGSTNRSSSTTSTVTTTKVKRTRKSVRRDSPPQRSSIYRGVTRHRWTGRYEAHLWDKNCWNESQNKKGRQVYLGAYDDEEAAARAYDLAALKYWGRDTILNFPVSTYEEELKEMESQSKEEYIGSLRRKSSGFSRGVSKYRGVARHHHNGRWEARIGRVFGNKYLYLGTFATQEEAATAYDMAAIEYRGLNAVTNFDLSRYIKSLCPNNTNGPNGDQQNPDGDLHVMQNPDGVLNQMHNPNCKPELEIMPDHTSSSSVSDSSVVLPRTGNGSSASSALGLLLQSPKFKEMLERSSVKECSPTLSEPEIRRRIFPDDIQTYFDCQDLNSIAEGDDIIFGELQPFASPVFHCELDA

B1: MdPSY2-1 promoter hot probe (dsDNA)
DNA 1: CTTTTCTTCTCTCAGTACATGCACCGACGTCGATATTAACCTTGGAACCT
DNA 2: AGGTTCCAAGGTTAATATCGACGTCGGTGCATGTACTGAGAGAAGAAAAG
In the case of B1, the binding result is on record as “binds”.
